# Legend:
# [1] = biological target: Myc-GST融合蛋白(Myc标签与谷胱甘肽融合的蛋白); assay: ELISA on coated Myc-GST (5 μg/mL), anti-His-HRP detection, heat tolerance test at 80℃
# [2] = biological target: Myc-GST融合蛋白(Myc标签与谷胱甘肽融合的蛋白); assay: ELISA on coated Myc-GST (5 μg/mL), anti-His-HRP detection, heat tolerance test at 70℃
# [3] = biological target: Myc-GST融合蛋白(Myc标签与谷胱甘肽融合的蛋白); assay: ELISA on coated Myc-GST (5 μg/mL), anti-His-HRP detection, heat tolerance test at 90℃
binder,measurement,setting,value
抗c-Myc标签单域重链抗体 (VHH) VHH: QLQLVESGGGSVQPGGSLTLSCSASGFNISQYSVGWFREAPGEEREGISCLDIDGKITTFSDAIQGRFTIARDNAANMIYLHMDALNPLDTAVYRCVARWDCSRHDFITQKTATGIWGPGTQVTVSA,OD450,[1],1.3 OD450
same,OD450,[2],1.5 OD450
same,OD450,[3],1.1 OD450

# — patent CN106914229A
